# According to PMC11485255, “Structure of a fully assembled γδ T cell antigen receptor” (Nature, 2024):
# B1: Fab fragment of the anti-human CD3ε murine antibody UCHT1 (Fab, V domains shown)
# VH: EVQLQQSGPELVKPGASMKISCKASGYSFTGYTMNWVKQSHGKNLEWMGLINPYKGVSTYNQKFKDKATLTVDKSSSTAYMELLSLTSEDSAVYYCARSGYYGDSDWYFDVWGQGTTLTVFS
# VL: DIQMTQTTSSLSASLGDRVTISCRASQDIRNYLNWYQQKPDGTVKLLIYYTSRLHSGVPSKFSGSGSGTDYSLTISNLEQEDIATYFCQQGNTLPWTFAGGTKLEIK
# notes: VH domain of UCHT1; C-γ1 domain of murine IgG1, residues 1-103 of P01868-1; Vκ domain of UCHT1; murine constant kappa domain; Both chains were expressed under a modified cPTPRσ signal peptide ([residues removed], last two residues changed for a KpnI site); also called UCHT1 Fab; source: CHO-K1, lentiviral transduction, purified from culture supernatant (CaptureSelect C-tagXL, Superdex 200)
# Key:
# CD3ε on Jurkat T cells = biological target: T1, CD3ε on Jurkat T cells (human (endogenous in Jurkat), UniProt P07766); experiment: flow cytometry on cells; cells pre-incubated with increasing concentrations of UCHT1 Fab, then stained with fluorescent UCHT1 antibody; conditions: one partner purified
# T1 construct: CD3-ε as part of the TCR–CD3 complex at the cell surface; source: endogenous, on Jurkat T cells (TCR transductants)
# T1 sequence (P07766 23-207): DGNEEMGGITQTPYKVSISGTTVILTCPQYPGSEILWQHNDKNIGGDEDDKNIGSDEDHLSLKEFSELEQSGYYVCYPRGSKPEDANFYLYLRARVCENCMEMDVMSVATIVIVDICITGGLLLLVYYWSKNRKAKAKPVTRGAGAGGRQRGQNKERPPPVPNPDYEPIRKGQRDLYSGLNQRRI
# [1] = biological target: T2, CD3-ε, full length, GFP2-fused (human, UniProt P07766); experiment: cryo-EM structure; subunits co-expressed in CHO-S and purified as one complex in detergent; tenfold molar excess of UCHT1 Fab added before a final SEC in 10 mM HEPES pH 7.4, 150 mM NaCl, 0.02% GDN; 3.01 Å consensus map and 3.39 Å TM-focused map; conditions: both partners purified
# T2 construct: CD3-ε, full length; source: CHO-S, lentiviral transduction, co-expressed with the other subunits; purified as the complex from LMNG-solubilised membranes (Strep-Tactin XT, SEC in GDN)
# T2 sequence (P07766 23-207): as above
binder,measurement,setting,value
B1,binding result,CD3ε on Jurkat T cells,binds
same,binding result,[1],binds
